Common to all, as to test: SDS-PAGE under nonreducing conditions
Assay [1] concerns the target rFN(BAC), recombinant human fibronectin isoform containing both EDA and EDB segments (human).
The target in assay [2] is rFN(AC), recombinant human fibronectin isoform containing EDA but lacking EDB (human).
The target of assay [3] is rFN(C), recombinant human fibronectin isoform lacking both EDA and EDB segments (human).

Take “rFN(BAC), recombinant human fibronectin isoform containing both EDA and EDB segments (natural protein)”: the stoichiometry N (commonly the number of molecules, sites or subunits per partner or assembly) in assay [1] was 2.
Turning to “rFN(AC), recombinant human fibronectin isoform containing EDA but lacking EDB (natural protein)”, the stoichiometry N in assay [2] came out at 2.
On to “rFN(C), recombinant human fibronectin isoform lacking both EDA and EDB segments (natural protein)”, for which, in assay [3], the stoichiometry N worked out at 2.

(Values after article PMC2139828.)
